Measurements from US6645504B1, “Bystander suppression of type I diabetes by oral administration of glucagon” (AutoImmune Inc., priority 1987, dated 2003).

Assays:
TGF-β = test: Measurement of TGF-β activity in serum-free culture supernatants of spleen cells; assay type: cell-based, Lewis rats
Description: Measurement Of TGF-β Activity In Serum-Free Culture Supernatants. Serum free culture supernatants were collected as previously described (Kehri, et al. J. Exp. Med. 163: 1037-1050, 1986; Wahl, et al. J. […] Thereafter cells were washed three times and resuspended in serum-free medium for the remainder of the 72 hour culture, collected, then frozen until assayed. Determination of TGF-β content and isoform type in supernatants was performed using a mink lung epithelial cell line (American Type Culture Collection, Bethesda, Md. #CCL-64) according to Danielpour et al. (supra), and confirmed by a Sandwich Enzyme Linked Immunosorbent Assay (SELISA) assay as previously described (Danielpour et al. Growth Factors 2: 61-71,1989). The percent active TGF-β was determined by assay without prior acid activation of the samples.

EAE [1] = test: EAE induced by guinea pig MBP 71-90, feeding of MBP peptides; assay type: in vivo, Lewis rats; details: fed; FIG. 14
Description: The effects of feeding various peptides to Lewis rats induced for EAE by guinea pig MBP residue nos. 71-90 (the major immunodominant epitope of guinea pig MBP as shown in Example 3 above) were also studied.
EAE was induced by immunizing with 0.25 mg of guinea pig MBP amino acid residue nos 71-90 in Complete Freund's Adjuvant and the effect of feeding various guinea pig MBP peptides on EAE was examined.

OVA line = test: Transwell culture suppression of OVA T cell line; assay type: cell-based, Lewis rats
Source text: (§1) Transwell Cultures. A dual chamber transwell culture system (Costar, Cambridge, Mass.), which is 24.5 mm in diameter and consists of two compartments separated by a semi-permeable polycarbonate membrane, with a pore size of 0.4 μm, was used. The two chambers are 1 mm apart, allowing cells to be coin-cubated in close proximity without direct cell-to-cell contact. To measure in vitro suppression of proliferative responses in transwell cultures, 5×10^4 MBP- or OVA-specific line cells, raised and maintained as previously described (Ben-Nun, A. et al., Eur. J. Immunol. 11:195, 1981), were cultured with 10^6 irradiated (2,500 rad) thymocytes, in 600 μl of proliferation media in the lower well. Spleen cells from orally tolerized rats or controls (fed BSA) were added to the upper well (5×10^5 cells in 200 μl). Spleen cells were removed 7-14 days after the last feeding, and a single cell suspension was prepared by pressing the spleens through a stainless steel mesh. MBP and OVA (50 μg/ml) were added in a volume of 20 μl. […] In some experiments, modulator cells were added in the lower well together with responder cells, and in these instances modulator cells were irradiated (1,250 rad) immediately before being placed in culture. Proliferation media consisted of RPMI 1640 (Gibco Laboratories, Grand Island, N.Y.) supplemented with […] 2-mercaptoethanol, 1% sodium pyruvate, 1% penicillin and streptomycin, 1% glutamine, 1% HEPES buffer, 1% nonessential amino acids, and 1% autologous serum. Each transwell was performed in quadruplicate. The transwells were incubated at 37° C. in a humidified 6% CO2 and 94% air atmosphere for 72 hours. After 54 hours of culture, each lower well was pulsed with 4 μCi of [^3H]thymidine and at 72 hours split and reseeded to three wells in a round-bottomed 96-well plate (Costar) for harvesting onto fiberglass filters and counting using standard liquid scintillation techniques. Percent suppression =100×(1−Δ A cpm responders cultured with modulators/Δ cpm of responders).

DTH responses to MBP = test: Delayed type hypersensitivity (DTH) testing, Example 1; assay type: in vivo, Lewis rats; details: orally tolerized animals injected 5 times with 50 μl control serum; 48 hours after MBP challenge
Description: Delayed Type Hypersensitivity (DTH) Testing. DTH was tested by injecting 25 μg of MBP in PBS subcutaneously in the ear. Thickness was measured before and 48 hours after challenge, by a blinded observer, using micrometer calipers (Mitutoyo, Japan). Change in ear thickness pre- and post-challenge was recorded for each animal and the result expressed as the mean for each experimental group ±SEM.
Delayed-type hypersensitivity (DTH) responses correlate with the clinical course of EAE and serve as a measure of in vivo cellular immunity to MBP (Brod, S. A. et al. Ann. Neurol. 29:615-622, 1991; Khoury, S. J. et al. Cell. Immunol. 131:302-310, 1990). DTH responses were tested in the same groups described in FIG. 4 by injecting 25 μg of MBP in PBS subcutaneously in the ear. Thickness was measured before and 48 hours after challenge. The change in ear thickness pre- and post-challenge was recorded for each animal and the results expressed as the mean for each experimental group ± SEM.

[2] = system: DTH responses to MBP or OVA; test: Delayed type hypersensitivity (DTH) testing, Example 2; assay type: in vivo, Lewis rats; details: fed antigen, then immunized with MBP/CFA plus OVA; FIG. 7
Description: Delayed Type Hypersensitivity (DTH) Testing. DTH was tested by injecting 50 μg of MBP or OVA in PBS, subcutaneously into the ear. MBP was injected in the left ear and OVA in the right ear in the same animal. Thickness, in units of 0.01 inch, was measured in a blinded fashion, before and 48 hours after challenge, using micrometer calipers (Mitutoyo, Utsunomia, Japan). Change in ear thickness before and after challenge was recorded for each animal, and results were expressed as the mean for each experimental group ± SEM; each group consisted of five animals.

EAE [3] = test: Adoptive transfer of disease suppression; assay type: in vivo, Lewis rats; details: naive recipients immunized with MBP/CFA and given OVA subcutaneously; FIG. 9
Description: Adoptive Transfer Of Disease Suppression. In order to monitor the adoptive transfer of disease suppression occurring during Bystander Suppression donor rats were fed either 1 mg MBP, OVA, or KLH, five times at 2 day intervals and killed 7-14 days after the final feeding. Spleen cells were harvested, and incubated in vitro with the homologous antigen (50 μg/ml) in proliferation medium, for 72 hours. Cells were injected intraperitoneally: 10^8 cells for whole spleen populations or 5-6×10^7 cells for CD8− or CD4-depleted populations. Recipient animals were irradiated (250 rad) before adoptive transfer, immunized with MBP/CFA 6 hours after adoptive transfer, and challenged 8 hours later with 50 μg OVA.

MBP line = test: Transwell culture suppression of MBP T cell line; assay type: cell-based, Lewis rats
Source text: as §1

[4] = spleen cells of MBP-fed animals stimulated with concanavalin-A
[5] = MBP-fed modulators + MBP in upper well
[6] = MBP-fed modulators in upper well without MBP
[7] = irradiated modulators in lower well with MBP line + MBP 50 μg/ml
[8] = modulators in upper well, MBP line + MBP in lower well

B1: MBP: Guinea pig myelin basic protein purified from brain tissue (protein, UniProt P25188 1-167, looked up)
Myelin basic protein: ASQKRPSQRHGSKYLATASTMDHARHGFLPRHRDTGILDSIGRFFGSDRAAPKRGSGKDSHHAARTTHYGSLPQKSQRSQDENPVVHFFKNIVTPRTPPPSQGKGRGLSLSRFSWGAEGQKPGFGYGGRADYKSKGFKGAHDAQGTLSKIFKLGGRDSRSGSPMARR
active TGF-β (TGF-β; [4]): No active TGF-β was observed
latent TGF-β (TGF-β; [4]): 2.1 ± 0.45 ng/mL
TGF-β in the active form (TGF-β; spleen cells of fed animals stimulated in vitro with the fed antigen): 68±9%
amount of TGF-β (TGF-β; spleen cells of fed animals stimulated in vitro with the fed antigen, serum-free): 6.8 ± 1.7 ng/mL
down-regulation of EAE induced by guinea pig MBP 71-90 (EAE [1]): equally effective in down-regulating EAE
Percent Suppression (OVA line; [5]): 51%
Δ cpm (OVA line; [5]): 30,974 ± 3,450 cpm
Percent Suppression (OVA line; [6]): −5%
Δ cpm (OVA line; [6]): 65,868 ± 3,989 cpm
DTH response (change in ear thickness) (DTH responses to MBP): 0.5±0.3
DTH responses to MBP [2]: Suppressed DTH responses to MBP
adoptive transfer of protection by spleen cells from fed animals (EAE [3]): adoptively transferred protection
Percent Suppression (MBP line; [7]): 51%
Δ cpm (MBP line; [7]): 18,412 ± 1,867 cpm
Percent Suppression (MBP line; [8]): 59%
Δ cpm (MBP line; [8]): 15,620 ± 2,294 cpm
